Bridge positions count the residues as written; N and C are the ends. Square brackets hold non-standard residues; d marks the D form. Peptide text beside a SMILES is read from it. * marks the point of attachment. NOTA = O=C(O)CN1CCN(CC(=O)O)CCN(CC(=O)*)CC1; Nle = CCCC[C@H](N)C(=O)O; AEEA = NCCOCCOCC(=O)O
How the values were obtained:
in vivo = details: female, BALB/c, mouse, iv, total radioactivity
Description: The animals (BALB/c female mice, n = 6) were administered with carbon tetrachloride (CCl4) formulated in a corn oil solution (20%, 0.5 mg per gram of body weight) into the lower side of the abdomen three times a week for three weeks. The wellbeing of the animals was monitored for 30 min after the injection and once per day afterwards. The development of liver fibrosis was confirmed by post-mortem Sirius Red staining of the PFA liver biopsies.
Healthy mice (n = 4, 19.6 ± 1.0 g) and mice with CCl4 induced liver fibrosis (n = 5, 21.55 ± 1.12 g) were intravenously administered with [^68Ga]Ga-NO2A-[Nle^13]-Col (5.2 ± 2.1 MBq, 0.31 ± 0.09 ug and 6.1 ± 2.1 MBq, 0.35 ± 0.08 ug) and the tracer organ distribution was studied after a 60 min incubation ex vivo (Table S1). The weight of the excised organs of interest (blood, heart, lung, liver, pancreas, spleen, kidney, intestines, muscle, brain) was noted and the radioactivity was measured using an automated gamma counter (2480 Wizard2^TM, PerkinElmer, Waltham, MA, USA) with a correction for dead-time and radioactivity decay.

[1] = set-up: species or system human
Text: The rat SUVs were translated into a percentage of injected activity (%IA, Equation (3)) for human organs according to Equation (3) (Table S3), where SUVA is the SUVs of the rat organs; gorgan and kgTBweight are, respectively, standard organ weight and standard total body weight of a human. The standard organ masses and total-body weight values were obtained from the OLINDA software (organ level internal dose assessment code, Vanderbilt University, USA, 2007). (3) %IAOrganhuman=SUVA∗gorgan/kgTBweighthuman The %IA values were decay corrected to the animal termination time point at 5, 10, 30, 40, 60, and 120 min post administration and plotted as a function of time. The area under the curve for each organ was integrated using the trapezoid method assuming a simple exponential decay to eternity after the last point. The derived time-integrated activity coefficient (TIAC) for each organ, which is equal to the number of disintegrations (MBq-h/MBq) and dose rate S-values extracted from the Medical Internal […] (MIRD) pamphlet, was used for the computation of organ and whole-body effective doses (mSv/MBq) in humans in the OLINDA/EXM software package (Version 1.1, Vanderbilt University).

Compound: CCCC[C@@H]1NC(=O)[C@H](C(C)C)NC(=O)[C@H](CCCNC(=N)N)NC(=O)CNC(=O)[C@@H]2CCCN2C(=O)[C@@H](NC(=O)COCCOCCNC(=O)CN2CCN(CC(=O)O)CCN(CC(=O)O)CC2)CSSC[C@@H](C(=O)O)NC(=O)[C@@H]2CCCN2C(=O)CNC(=O)[C@H](CCC(=O)O)NC(=O)[C@H](CC(=O)O)NC(=O)[C@H](CC(=O)O)NC(=O)CNC(=O)[C@H](CC(C)C)NC(=O)[C@H](Cc2c[nH]cn2)NC(=O)[C@H](CC(C)C)NC(=O)CNC(=O)[C@H](Cc2c[nH]cn2)NC1=O [[^68Ga]Ga-NO2A-[Nle^13]-Col, [^68Ga]Ga-NOTA-PEG2-c[CPGRVNleHGLHLGDDEGPC], metal not drawn] ({NOTA-AEEA}-CPGRV[Nle]HGLHLGDDEGPC-OH; disulfide 1-18)
- SUV at 1 h (in vivo; 5.2 MBq, SUV lungs (LU)): 0.0679 SUV
- SUV at 1 h (in vivo; 6.1 MBq, SUV kidneys (KI)): 2.12 SUV
- PET/CT examinations per year [1]: 4-5
- administration per year allowed by bone marrow absorbed dose [1]: 8000-10,000 MBq per year
- dose of all organs other than kidney [1]: lower than 0.02 mSv/MBq
- dose of the remaining organs [1]: less than 0.009 mSv/MBq
- estimated absorbed dose, spleen [1]: 0.003 mGy/MBq

Source: article PMC8537947, “Improved Radiolytic Stability of a ^68Ga-labelled Collagelin Analogue for the Imaging of Fibrosis” (Pharmaceuticals, 2021)
